Data on five molecules can be found in US20230406951A1 (Pfizer, published 2023).

The assay concerns the target T1, human TNFR2 (human, UniProt P20333 23-461).
T1 construct: expressed on the surface of CHO cells; also called HuTNFR2; TNFRSF1B
T1 sequence: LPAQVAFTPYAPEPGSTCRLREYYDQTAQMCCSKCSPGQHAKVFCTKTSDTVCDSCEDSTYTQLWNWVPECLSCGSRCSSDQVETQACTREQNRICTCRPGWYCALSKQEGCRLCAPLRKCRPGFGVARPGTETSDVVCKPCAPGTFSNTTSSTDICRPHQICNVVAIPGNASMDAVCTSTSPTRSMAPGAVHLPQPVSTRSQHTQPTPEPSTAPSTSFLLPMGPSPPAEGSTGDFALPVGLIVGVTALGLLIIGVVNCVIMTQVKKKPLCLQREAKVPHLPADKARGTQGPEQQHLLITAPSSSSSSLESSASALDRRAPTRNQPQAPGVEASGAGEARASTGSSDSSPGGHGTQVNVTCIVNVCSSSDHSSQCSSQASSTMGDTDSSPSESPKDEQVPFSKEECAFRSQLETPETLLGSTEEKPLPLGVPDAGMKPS
Put plainly: binding to human TNFR2 CHO cells.

B1: TetraFab 2154 (antibody)
heavy: QVQLVQSGAEVKKPGASVKVSCKVSGFSFPSSGVDWVRQAPGQGLEWLGVTRGEGSTHYNQKFQGRVTITKDTSKSTVYMELSSLRSEDTAVYYCASGESTEGFVYWGQGTLVTVSSASTKGPSVFPLAPSSKSTSGGTAALGCLVKDYFPEPVTVSWNSGALTSGVHTFPAVLQSSGLYSLSSVVTVPSSSLGTQTYICNVNHKPSNTKVDKKVEPKSCGGGGSQVQLVQSGAEVKKPGASVKVSCKVSGFSFPSSGVDWVRQAPGQGLEWLGVTRGEGSTHYNQKFQGRVTITKDTSKSTVYMELSSLRSEDTAVYYCASGESTEGFVYWGQGTLVTVSSASTKGPSVFPLAPSSKSTSGGTAALGCLVKDYFPEPVTVSWNSGALTSGVHTFPAVLQSSGLYSLSSVVTVPSSSLGTQTYICNVNHKPSNTKVDKKVEPKSCDKTHTCPPCPAPEAAGAPSVFLFPPKPKDTLMISRTPEVTCVVVDVSHEDPEVKFNWYVDGVEVHNAKTKPREEQYNSTYRVVSVLTVLHQDWLNGKEYKCKVSNKALPAPIEKTISKAKGQPREPQVYTLPPSREEMTKNQVSLTCLVKGFYPSDIAVEWESNGQPENNYKTTPPVLDSDGSFFLYSKLTVDKSRWQQGNVFSCSVMHEALHNHYTQKSLSLSPGK
light: DIQLTQSPSFLSASVGDRVTITCKASQNVGTAVAWYQQKPGKAPKLLIYAASTLQSGVPSRFSGSGSGTEFTLTISSLQPEDFATYYCLQKSSYPLTFGGGTKVEIKRTVAAPSVFIFPPSDEQLKSGTASVVCLLNNFYPREAKVQWKVDNALQSGNSQESVTEQDSKDSTYSLSSTLTLSKADYEKHKVYACEVTHQGLSSPVTKSFNRGEC
notes: TetraFab
B1: the binding result is on record as “no binding”.

B2: TetraFab 2156 (antibody)
heavy: QVQLVQSGAEVKKPGASVKVSCKVSGFSFPSSGVDWVRQAPGQGLEWLGVTRGEGSTHYNQKFQGRVTITKDTSKSTVYMELSSLRSEDTAVYYCASGERDEGFVYWGQGTLVTVSSASTKGPSVFPLAPSSKSTSGGTAALGCLVKDYFPEPVTVSWNSGALTSGVHTFPAVLQSSGLYSLSSVVTVPSSSLGTQTYICNVNHKPSNTKVDKKVEPKSCGGGGSQVQLVQSGAEVKKPGASVKVSCKVSGFSFPSSGVDWVRQAPGQGLEWLGVTRGEGSTHYNQKFQGRVTITKDTSKSTVYMELSSLRSEDTAVYYCASGERDEGFVYWGQGTLVTVSSASTKGPSVFPLAPSSKSTSGGTAALGCLVKDYFPEPVTVSWNSGALTSGVHTFPAVLQSSGLYSLSSVVTVPSSSLGTQTYICNVNHKPSNTKVDKKVEPKSCDKTHTCPPCPAPEAAGAPSVFLFPPKPKDTLMISRTPEVTCVVVDVSHEDPEVKFNWYVDGVEVHNAKTKPREEQYNSTYRVVSVLTVLHQDWLNGKEYKCKVSNKALPAPIEKTISKAKGQPREPQVYTLPPSREEMTKNQVSLTCLVKGFYPSDIAVEWESNGQPENNYKTTPPVLDSDGSFFLYSKLTVDKSRWQQGNVFSCSVMHEALHNHYTQKSLSLSPGK
light: DIQLTQSPSFLSASVGDRVTITCKASQNVGTAVAWYQQKPGKAPKLLIYAASTLQSGVPSRFSGSGSGTEFTLTISSLQPEDFATYYCLQKSSYPLTFGGGTKVEIKRTVAAPSVFIFPPSDEQLKSGTASVVCLLNNFYPREAKVQWKVDNALQSGNSQESVTEQDSKDSTYSLSSTLTLSKADYEKHKVYACEVTHQGLSSPVTKSFNRGEC
notes: TetraFab
For the molecule B2, the binding result is “no binding”.

B3: TetraFab 2162 (antibody)
heavy: QVQLVQSGAEVKKPGASVKVSCKVSGFSFPSSGVDWVRQAPGQGLEWLGVTLGHGSTHYNQKFQGRVTITKDTSKSTVYMELSSLRSEDTAVYYCASGESTEGFVYWGQGTLVTVSSASTKGPSVFPLAPSSKSTSGGTAALGCLVKDYFPEPVTVSWNSGALTSGVHTFPAVLQSSGLYSLSSVVTVPSSSLGTQTYICNVNHKPSNTKVDKKVEPKSCGGGGSQVQLVQSGAEVKKPGASVKVSCKVSGFSFPSSGVDWVRQAPGQGLEWLGVTLGHGSTHYNQKFQGRVTITKDTSKSTVYMELSSLRSEDTAVYYCASGESTEGFVYWGQGTLVTVSSASTKGPSVFPLAPSSKSTSGGTAALGCLVKDYFPEPVTVSWNSGALTSGVHTFPAVLQSSGLYSLSSVVTVPSSSLGTQTYICNVNHKPSNTKVDKKVEPKSCDKTHTCPPCPAPEAAGAPSVFLFPPKPKDTLMISRTPEVTCVVVDVSHEDPEVKFNWYVDGVEVHNAKTKPREEQYNSTYRVVSVLTVLHQDWLNGKEYKCKVSNKALPAPIEKTISKAKGQPREPQVYTLPPSREEMTKNQVSLTCLVKGFYPSDIAVEWESNGQPENNYKTTPPVLDSDGSFFLYSKLTVDKSRWQQGNVFSCSVMHEALHNHYTQKSLSLSPGK
light: DIQLTQSPSFLSASVGDRVTITCKASQNVGTAVAWYQQKPGKAPKLLIYAASTLQSGVPSRFSGSGSGTEFTLTISSLQPEDFATYYCLQKSSYPLTFGGGTKVEIKRTVAAPSVFIFPPSDEQLKSGTASVVCLLNNFYPREAKVQWKVDNALQSGNSQESVTEQDSKDSTYSLSSTLTLSKADYEKHKVYACEVTHQGLSSPVTKSFNRGEC
notes: TetraFab
As to B3, the binding result is listed as “no binding”.

B4: TetraFab 2163 (antibody)
heavy: QVQLVQSGAEVKKPGASVKVSCKVSGFSFPSSGVDWVRQAPGQGLEWLGVTLGHGSTHYNQKFQGRVTITKDTSKSTVYMELSSLRSEDTAVYYCASGEHDEGFVYWGQGTLVTVSSASTKGPSVFPLAPSSKSTSGGTAALGCLVKDYFPEPVTVSWNSGALTSGVHTFPAVLQSSGLYSLSSVVTVPSSSLGTQTYICNVNHKPSNTKVDKKVEPKSCGGGGSQVQLVQSGAEVKKPGASVKVSCKVSGFSFPSSGVDWVRQAPGQGLEWLGVTLGHGSTHYNQKFQGRVTITKDTSKSTVYMELSSLRSEDTAVYYCASGEHDEGFVYWGQGTLVTVSSASTKGPSVFPLAPSSKSTSGGTAALGCLVKDYFPEPVTVSWNSGALTSGVHTFPAVLQSSGLYSLSSVVTVPSSSLGTQTYICNVNHKPSNTKVDKKVEPKSCDKTHTCPPCPAPEAAGAPSVFLFPPKPKDTLMISRTPEVTCVVVDVSHEDPEVKFNWYVDGVEVHNAKTKPREEQYNSTYRVVSVLTVLHQDWLNGKEYKCKVSNKALPAPIEKTISKAKGQPREPQVYTLPPSREEMTKNQVSLTCLVKGFYPSDIAVEWESNGQPENNYKTTPPVLDSDGSFFLYSKLTVDKSRWQQGNVFSCSVMHEALHNHYTQKSLSLSPGK
light: DIQLTQSPSFLSASVGDRVTITCKASQNVGTAVAWYQQKPGKAPKLLIYAASTLQSGVPSRFSGSGSGTEFTLTISSLQPEDFATYYCLQKSSYPLTFGGGTKVEIKRTVAAPSVFIFPPSDEQLKSGTASVVCLLNNFYPREAKVQWKVDNALQSGNSQESVTEQDSKDSTYSLSSTLTLSKADYEKHKVYACEVTHQGLSSPVTKSFNRGEC
notes: TetraFab
B4: the binding result is “no binding”.

B5: TetraFab 2167 (antibody)
heavy: QVQLVQSGAEVKKPGASVKVSCKVSGFSFPSSGVDWVRQAPGQGLEWLGVTHGSGSTHYNQKFQGRVTITKDTSKSTVYMELSSLRSEDTAVYYCASGEHDEGFVYWGQGTLVTVSSASTKGPSVFPLAPSSKSTSGGTAALGCLVKDYFPEPVTVSWNSGALTSGVHTFPAVLQSSGLYSLSSVVTVPSSSLGTQTYICNVNHKPSNTKVDKKVEPKSCGGGGSQVQLVQSGAEVKKPGASVKVSCKVSGFSFPSSGVDWVRQAPGQGLEWLGVTHGSGSTHYNQKFQGRVTITKDTSKSTVYMELSSLRSEDTAVYYCASGEHDEGFVYWGQGTLVTVSSASTKGPSVFPLAPSSKSTSGGTAALGCLVKDYFPEPVTVSWNSGALTSGVHTFPAVLQSSGLYSLSSVVTVPSSSLGTQTYICNVNHKPSNTKVDKKVEPKSCDKTHTCPPCPAPEAAGAPSVFLFPPKPKDTLMISRTPEVTCVVVDVSHEDPEVKFNWYVDGVEVHNAKTKPREEQYNSTYRVVSVLTVLHQDWLNGKEYKCKVSNKALPAPIEKTISKAKGQPREPQVYTLPPSREEMTKNQVSLTCLVKGFYPSDIAVEWESNGQPENNYKTTPPVLDSDGSFFLYSKLTVDKSRWQQGNVFSCSVMHEALHNHYTQKSLSLSPGK
light: DIQLTQSPSFLSASVGDRVTITCKASQNVGTAVAWYQQKPGKAPKLLIYAASTLQSGVPSRFSGSGSGTEFTLTISSLQPEDFATYYCLQKSSYPLTFGGGTKVEIKRTVAAPSVFIFPPSDEQLKSGTASVVCLLNNFYPREAKVQWKVDNALQSGNSQESVTEQDSKDSTYSLSSTLTLSKADYEKHKVYACEVTHQGLSSPVTKSFNRGEC
notes: TetraFab
In the case of B5, the binding result is recorded as “no binding”.
